Reference: patent US6709838 (Genentech, dated 2004)

T1: human Ptch-2 (SEQ ID NO:2), overexpressed on transfected human 293 embryonic kidney cells (human, UniProt Q9Y6C5 1-1203)
T1 construct: also called Patched-2; patched-2
T1 sequence: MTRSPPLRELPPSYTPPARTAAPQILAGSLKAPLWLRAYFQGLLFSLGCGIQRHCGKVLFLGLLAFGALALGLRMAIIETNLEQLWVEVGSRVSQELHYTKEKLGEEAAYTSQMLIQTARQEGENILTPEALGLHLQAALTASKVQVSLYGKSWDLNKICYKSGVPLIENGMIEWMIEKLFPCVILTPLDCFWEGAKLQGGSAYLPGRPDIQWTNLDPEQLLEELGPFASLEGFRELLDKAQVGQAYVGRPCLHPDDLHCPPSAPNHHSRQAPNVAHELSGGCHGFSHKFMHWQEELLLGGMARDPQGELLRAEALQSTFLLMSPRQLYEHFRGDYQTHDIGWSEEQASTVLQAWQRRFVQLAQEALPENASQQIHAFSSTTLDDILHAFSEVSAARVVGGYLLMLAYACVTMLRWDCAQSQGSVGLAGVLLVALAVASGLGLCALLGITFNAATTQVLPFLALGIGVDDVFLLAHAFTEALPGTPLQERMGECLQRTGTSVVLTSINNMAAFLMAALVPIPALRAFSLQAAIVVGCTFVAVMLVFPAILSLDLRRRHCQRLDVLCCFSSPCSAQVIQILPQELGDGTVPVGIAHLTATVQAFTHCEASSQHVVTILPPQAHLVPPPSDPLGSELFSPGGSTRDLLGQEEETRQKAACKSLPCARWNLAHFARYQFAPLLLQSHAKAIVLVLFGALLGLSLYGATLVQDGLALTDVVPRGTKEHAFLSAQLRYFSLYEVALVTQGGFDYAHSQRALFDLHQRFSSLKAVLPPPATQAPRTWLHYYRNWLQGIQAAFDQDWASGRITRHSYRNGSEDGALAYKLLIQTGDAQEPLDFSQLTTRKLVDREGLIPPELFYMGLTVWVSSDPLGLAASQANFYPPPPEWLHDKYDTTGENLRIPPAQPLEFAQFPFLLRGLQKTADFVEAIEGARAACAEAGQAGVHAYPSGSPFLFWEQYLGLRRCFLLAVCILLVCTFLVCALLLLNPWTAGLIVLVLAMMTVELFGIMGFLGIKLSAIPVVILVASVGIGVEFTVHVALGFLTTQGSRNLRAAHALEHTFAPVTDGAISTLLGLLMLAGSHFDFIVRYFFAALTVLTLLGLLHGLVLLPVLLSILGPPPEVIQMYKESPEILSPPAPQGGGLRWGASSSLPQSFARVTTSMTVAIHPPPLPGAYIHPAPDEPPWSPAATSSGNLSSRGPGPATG

B1: Dhh (SEQ ID NO:13) (ligand)
chain: not shown
notes: also called Desert Hh; Desert hedgehog
B2: Ihh (SEQ ID NO:29) (ligand)
chain: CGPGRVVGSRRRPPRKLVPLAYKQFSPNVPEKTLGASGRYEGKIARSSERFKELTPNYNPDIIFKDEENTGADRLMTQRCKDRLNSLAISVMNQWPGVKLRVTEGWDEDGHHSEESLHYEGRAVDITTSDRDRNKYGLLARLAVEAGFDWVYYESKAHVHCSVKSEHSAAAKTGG
notes: also called Indian Hh

Biological target: T1, human Ptch-2 (SEQ ID NO:2), …
Test: Scatchard analysis of 125I-Shh displacement curves, 293 cells expressing Ptch-2

Binder | Kd [nM]
B1 | 0.6
B2 | 0.4
